± gives the standard deviation of the averaged measurements.

One data set concerns hTERT-HMEC. Put plainly: percentage of EdU-negative (G0-arrested) nuclei per well, 72 h; higher = more G0 arrest. Conditions: reference: sequence is the full UniProt precursor, the tested protein was the secreted form or ectodomain.
Another data set deals with MCF7. Described as above. The conditions noted are these: reference: sequence is the full UniProt precursor, the tested protein was the secreted form or ectodomain.
Setting [1] is: protein concentration 0.0128525 µM.
[2] abbreviates: protein concentration 0.128525 µM.
The mark [3] stands for this setting: protein concentration 0.00828571 µM.
The mark [4] stands for this setting: protein concentration 0.0828571 µM.
Setting [5] is: protein concentration 0.03125 µM.
Setting [6] is: protein concentration 0.3125 µM.
[7] abbreviates: protein concentration 0.0277143 µM.
Where [8] appears, read: protein concentration 0.277143 µM.
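Further: secreted proteins added to cultured cells, EdU pulse at the end, nuclei found by Hoechst imaging, EdU status from nuclear versus surrounding ring intensity ratio, PBS as neutral control.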

For the sequence “MAPRRVRSFLRGLPALLLLLLFLGPWPAASHGGKYSREKNQPKPSPKRESGEEFRMEKLNQLWEKAQRLHLPPVRLAELHADLKIQERDELAWKKLKLDGLDEDGEKEARLIRNLNVILAKYGLDGKKDARQVTSNSLSGTQEDGLDDPRLEKLWHKAKTSGKFSGEELDKLWREFLHHKEKVHEYNVLLETLSRTEEIHENVISPSDLSDIKGSVLHSRHTELKEKLRSINQGLDRLRRVSHQGYSTEAEFEEPRVIDLWDLAQSANLTDKELEAFREELKHFEAKIEKHNHYQKQLEIAHEKLRHAESVGDGERVSRSREKHALLEGRTKELGYTVKKHLQDLSGRISRARHNEL”, the “percentage of EdU-negative” value in the data set on hTERT-HMEC (setting [1]) came to 4.97 ± 0.51%; in the data set on hTERT-HMEC (setting [2]) it was 6.45 ± 0.82%; in the data set with MCF7 (setting [1]), 24.3 ± 0.53%; in the data set with MCF7 (setting [2]), 26.4 ± 1.4%.

In the case of “MAPRTLWSCYLCCLLTAAAGAASYPPRGFSLYTGSSGALSPGGPQAQIAPRPASRHRNWCAYVVTRTVSCVLEDGVETYVKYQPCAWGQPQCPQSIMYRRFLRPRYRVAYKTVTDMEWRCCQGYGGDDCAESPAPALGPASSTPRPLARPARPNLSGSSAGSPLSGLGGEGPGESEKVQQLEEQVQSLTKELQGLRGVLQGLSGRLAEDVQRAVETAFNGRQQPADAAARPGVHETLNEIQHQLQLLDTRVSTHDQELGHLNNHHGGSSSSGGSRAPAPASAPPGPSEELLRQLEQRLQESCSVCLAGLDGFRRQQQEDRERLRAMEKLLASVEERQRHLAGLAVGRRPPQECCSPELGRRLAELERRLDVVAGSVTVLSGRRGTELGGAAGQGGHPPGYTSLASRLSRLEDRFNSTLGPSEEQEESWPGAPGGLSHWLPAARGRLEQLGGLLANVSGELGGRLDLLEEQVAGAMQACGQLCSGAPGEQDSQVSEILSALERRVLDSEGQLRLVGSGLHTVEAAGEARQATLEGLQEVVGRLQDRVDAQDETAAEFTLRLNLTAARLGQLEGLLQAHGDEGCGACGGVQEELGRLRDGVERCSCPLLPPRGPGAGPGVGGPSRGPLDGFSVFGGSSGSALQALQGELSEVILSFSSLNDSLNELQTTVEGQGADLADLGATKDRIISEINRLQQEATEHATESEERFRGLEEGQAQAGQCPSLEGRLGRLEGVCERLDTVAGGLQGLREGLSRHVAGLWAGLRETNTTSQMQAALLEKLVGGQAGLGRRLGALNSSLQLLEDRLHQLSLKDLTGPAGEAGPPGPPGLQGPPGPAGPPGSPGKDGQEGPIGPPGPQGEQGVEGAPAAPVPQVAFSAALSLPRSEPGTVPFDRVLLNDGGYYDPETGVFTAPLAGRYLLSAVLTGHRHEKVEAVLSRSNQGVARVDSGGYEPEGLENKPVAESQPSPGTLGVFSLILPLQAGDTVCVDLVMGQLAHSEEPLTIFSGALLYGDPELEHA [A0A0C4DFX3]”, the “percentage of EdU-negative” value in the data set with hTERT-HMEC (setting [3]) was 4.9 ± 0.43%; in the data set with hTERT-HMEC (setting [4]), 4.36 ± 0.72%; with MCF7 (setting [3]) it was 26.3 ± 1.3%; with MCF7 (setting [4]), 30.4 ± 3.6%.

Regarding “MAPSSPRPALPALLVLLGALFPGPGNAQTSVSPSKVILPRGGSVLVTCSTSCDQPKLLGIETPLPKKELLLPGNNRKVYELSNVQEDSQPMCYSNCPDGQSTAKTFLTVYWTPERVELAPLPSWQPVGKNLTLRCQVEGGAPRANLTVVLLRGEKELKREPAVGEPAEVTTTVLVRRDHHGANFSCRTELDLRPQGLELFENTSAPYQLQTFVLPATPPQLVSPRVLEVDTQGTVVCSLDGLFPVSEAQVHLALGDQRLNPTVTYGNDSFSAKASVSVTAEDEGTQRLTCAVILGNQSQETLQTVTIYSFPAPNVILTKPEVSEGTEVTVKCEAHPRAKVTLNGVPAQPLGPRAQLLLKATPEDNGRSFSCSATLEVAGQLIHKNQTRELRVLYGPRLDERDCPGNWTWPENSQQTPMCQAWGNPLPELKCLKDGTFPLPIGESVTVTRDLEGTYLCRARSTQGEVTRKVTVNVLSPRYEIVIITVVAAAVIMGTAGLSTYLYNRQRKIKKYRLQQAQKGTPMKPNTQATPP”, the “percentage of EdU-negative” value with hTERT-HMEC (setting [5]) worked out at 5 ± 0.26%; in the data set on hTERT-HMEC (setting [6]), 5.68 ± 0.88%; with MCF7 (setting [5]), 24.7 ± 1.5%; in the data set with MCF7 (setting [6]), 24.2 ± 3.4%.

Regarding “MAPVAVWAALAVGLELWAAAHALPAQVAFTPYAPEPGSTCRLREYYDQTAQMCCSKCSPGQHAKVFCTKTSDTVCDSCEDSTYTQLWNWVPECLSCGSRCSSDQVETQACTREQNRICTCRPGWYCALSKQEGCRLCAPLRKCRPGFGVARPGTETSDVVCKPCAPGTFSNTTSSTDICRPHQICNVVAIPGNASMDAVCTSTSPTRSMAPGAVHLPQPVSTRSQHTQPTPEPSTAPSTSFLLPMGPSPPAEGSTGDFALPVGLIVGVTALGLLIIGVVNCVIMTQVKKKPLCLQREAKVPHLPADKARGTQGPEQQHLLITAPSSSSSSLESSASALDRRAPTRNQPQAPGVEASGAGEARASTGSSDSSPGGHGTQVNVTCIVNVCSSSDHSSQCSSQASSTMGDTDSSPSESPKDEQVPFSKEECAFRSQLETPETLLGSTEEKPLPLGVPDAGMKPS”, the “percentage of EdU-negative” value in the data set with hTERT-HMEC (setting [7]) worked out at 5.56 ± 0.29%; in the data set on hTERT-HMEC (setting [8]) it was 6.09 ± 1.2%; in the data set on MCF7 (setting [7]), 22.2 ± 1.9%; in the data set with MCF7 (setting [8]), 23.6 ± 1.1%.

Source of the values: the supplement of paper PMC11316812.
